The values below come from doi:10.1101/2025.05.23.655777v1.

For the data set, the system named is NCCCC(=O)O. Description: purified protein. The note with it: fixed pyruvate (6 mM), TAPS pH 9.0, 50 µM PLP, 30 °C.

The term Km denotes the substrate concentration at which the rate is half of its maximum. What is called kcat is the number of substrate molecules converted per active site and unit of time at saturation. “GABA-AT; GABA aminotransferase 1 (recombinant) (Arabidopsis thaliana)”: the Km was 590 ± 200 µM and the kcat is 4.97 s⁻¹.
